According to paper doi:10.1101/2024.06.19.598823 (bioRxiv, 2024):

Columns and labels:
[1] = target: 6P stabilized SARS-CoV-2 S-ectodomain (prefusion-stabilized ancestral Wuhan spike ectodomain trimer) (SARS-CoV-2, ancestral Wuhan, stabilised); assay: cryo-EM structure
[2] = target: SARS-CoV-2 spike ectodomain, trimeric recombinant (SARS-CoV-2, ancestral (Wuhan) assumed, UniProt P0DTC2); assay: cell-based or functional assay

B1: nanobody 7F (VHH)
VHH: EVQLVESGGGLVEAGGSLRLSCVASGLTFSDYTMAWFRQVPGQEREFVSHIGWGGSETYYADSVKGRFTISRDNAKNAMYLQMNELKPDDTAVYYCAADRGSSFYYVRESEYTFWGQGTQVTVSS
stoichiometry N [1]: 6 7F molecules per two spike trimers | IC50 of neutralisation of VSV pseudotyped with SARS-CoV-2 spike on VeroE6 cells [2]: 33.4 nM
